Data: patent US20150086555A1

B1: TCN-536 (5095_N01) (antibody, V domains shown)
VH: QVQLQQWGAGLLKPSETLSLTCAVYGGSFSVSGYYWSWIRQPPGRGLEWIGEISHGGSTNYNPSLKSRVTISVDTTKNQFSLRLSSVTAADTAVYYCARGTDPDTEVYCRVGNCAAFDYWGQGSLVTVSS
VL: EIILAQSPGTLSLSPGERATLSCRASQFVSTRSLAWYQQRPGQAPRLLIYGASSRATGIPDRFSGSGSGTDFTLTISRLEPEDFAVYYCQHYGYSPRYAFGQGSKVEIK
B2: TCN-528 (5087_P17) (antibody, V domains shown)
VH: QVQLVQSGSEVKKPGASVKVSCKASGYTFTNYDINWIRQAPGQGLEWMGWINPNSGTTGSAQRFQGRVTITVDTSITTVYMELSSLRSDDTAIYYCARGRELLRLQHFLTDSQSERRDCFDPWGQGTLVTVSS
VL: DIQMTQSPSSLSASVGDRVTITCRANQDIGIYLNWYQQNPGKVPKLLLHGASSLQGGVPSRFSASGSGTDFTLTIHSLQPEDLATYYCQQSRRLPYTFGQGTRVELK
B3: TCN-527 (5086_C06) (antibody, V domains shown)
VH: QVQLQESGPGLVKPSETLSLNCAVSGGSISNYYWSWIRQPPGKGLEWIGYISYNGRPKYNPSLTSRVTISVDTSKDQFSLELRSVTAADTALYYCARETRFGELLSPYDAFEIWGQGTMVTVSS
VL: DIQMTQSPSSLSASVGDRVTMTCRASQNIRSYLNWYQQRPGTAPKLLIYAASTLHSGVPSRFSGGGSGTDFTLTINNLQPEDFASYYCQQSYDNPQTFGQGTKVEIK
B4: TCN-540 (5060_F05) (antibody, V domains shown)
VH: QVQLVQSGGGVVQPGRSLRLSCAASGFTFSSYAMHWVRQAPGKGLEWVAIISYDGNDQYYTDSVKGRFTISRDSSKVYLQMHRLRPEDTAVYYCAKEFETSGYFHGSFDYWGQGILVTVSS
VL: QSALTQPASVSGSPGQSITISCTGTSSDVGGYNYVSWYQQHPGKAPKLLIYEVTNWPSGVSNRFSGSKSGNTASLTISGLQAEDEADYYCSSYAGSSTWVFGGGTRVTVL

target: recombinant soluble homotrimeric HA of A/Anhui/1/05 (H5N1) (Influenza A virus A/Anhui/1/2005(H5N1)); assay: HA microarray, BCC supernatant; conditions: remark: other sources report otherwise

Row | Binder | Trimeric HA Binding: RLU [RLU]
1 | B1 | 543
2 | B2 | 49800
3 | B3 | 21400
4 | B4 | 25

target: recombinant soluble homotrimeric HA of A/California/4/09 (H1N1) (Influenza A virus A/California/04/2009(H1N1)); assay: HA microarray, BCC supernatant; conditions: remark: other sources report otherwise

Row | Binder | Trimeric HA Binding: RLU [RLU]
5 | B1 | 151
6 | B2 | 48800
7 | B3 | 28000
8 | B4 | 57

target: recombinant soluble homotrimeric HA of A/Hong Kong/2108/03 (H9N2) (Influenza A virus A/HK/2108/2003(H9N2)); assay: HA microarray, BCC supernatant; conditions: remark: other sources report otherwise

Row | Binder | Trimeric HA Binding: RLU [RLU]
9 | B1 | 1570
10 | B2 | 42000
11 | B3 | 16000
12 | B4 | 22

target: recombinant soluble homotrimeric HA of A/Indonesia/5/05 (H5N1) (Influenza A virus A/Indonesia/5/2005(H5N1)); assay: HA microarray, BCC supernatant; conditions: remark: other sources report otherwise

Row | Binder | Trimeric HA Binding: RLU [RLU]
13 | B2 | 42800
14 | B3 | 23800
15 | B4 | 31

target: recombinant soluble homotrimeric HA of A/Japan/305/57 (H2N2) (Influenza A virus A/Japan/305/1957(H2N2)); assay: HA microarray, BCC supernatant; conditions: remark: other sources report otherwise

Row | Binder | Trimeric HA Binding: RLU [RLU]
16 | B1 | 121
17 | B2 | 46400
18 | B3 | 19300
19 | B4 | 2970

target: recombinant soluble homotrimeric HA of A/Netherlands/219/03 (H7N7) (Influenza A virus A/Netherlands/219/03(H7N7)); assay: HA microarray, BCC supernatant; conditions: remark: other sources report otherwise

Row | Binder | Trimeric HA Binding: RLU [RLU]
20 | B1 | 976
21 | B2 | 49300
22 | B3 | 8890
23 | B4 | 381

target: recombinant soluble homotrimeric HA of A/Solomon Islands/3/06 (H1N1) (Influenza A virus A/Solomon Islands/3/2006(H1N1)); assay: HA microarray, BCC supernatant; conditions: remark: other sources report otherwise

Row | Binder | Trimeric HA Binding: RLU [RLU]
24 | B2 | 44800
25 | B3 | 16500
26 | B4 | 64

target: recombinant soluble homotrimeric HA of A/Vietnam/1203/04 (H5N1) (Influenza A virus A/VietNam/1203/2004(H5N1)); assay: HA microarray, BCC supernatant; conditions: remark: other sources report otherwise

Row | Binder | Trimeric HA Binding: RLU [RLU]
27 | B1 | 146
28 | B2 | 45600
29 | B3 | 21300
30 | B4 | 63

target: recombinant soluble homotrimeric HA of A/Wisconsin/67/05 (H3N2) (Influenza A virus A/Wisconsin/67/2005(H3N2)); assay: HA microarray, BCC supernatant; conditions: remark: other sources report otherwise

Row | Binder | Trimeric HA Binding: RLU [RLU]
31 | B1 | 35000
32 | B2 | 48800
33 | B3 | 5720
34 | B4 | 728

target: recombinant soluble homotrimeric HA of A/chicken/Vietnam/NCVD-016/08 (H5N1) (Influenza A virus A/chicken/Vietnam/NCVD-016/2008(H5N1)); assay: HA microarray, BCC supernatant; conditions: remark: other sources report otherwise

Row | Binder | Trimeric HA Binding: RLU [RLU]
35 | B1 | 287
36 | B2 | 38200
37 | B3 | 27000
38 | B4 | 70

target: recombinant soluble homotrimeric HA of A/duck/Yangzhou/02/05 (H8N4) (Influenza A virus A/duck/Yangzhou/02/2005(H8N4)); assay: HA microarray, BCC supernatant; conditions: remark: other sources report otherwise

Row | Binder | Trimeric HA Binding: RLU [RLU]
39 | B1 | 436
40 | B2 | 38400
41 | B3 | 28800
42 | B4 | 117

target: recombinant soluble homotrimeric HA of A/northern shoveler/California/HKWF115/07 (H6) (Influenza A virus A/northern shoveler/California/HKWF115/2007(H6N1)); assay: HA microarray, BCC supernatant; conditions: remark: other sources report otherwise

Row | Binder | Trimeric HA Binding: RLU [RLU]
43 | B1 | 2210
44 | B2 | 46800
45 | B3 | 30300
46 | B4 | 131

target: recombinant soluble homotrimeric HA of A/swine/Ontario/01911-2/99 (H4N6) (Influenza A virus A/Swine/Ontario/01911-2/99 (H4N6)); assay: HA microarray, BCC supernatant; conditions: remark: other sources report otherwise

Row | Binder | Trimeric HA Binding: RLU [RLU]
47 | B1 | 79
48 | B2 | 47500
49 | B3 | 7690
50 | B4 | 178

target: recombinant homotrimeric HA A/Anhui/1/05 H5N1 (Influenza A virus A/Anhui/1/2005(H5N1)); assay: protein microarray, purified IgG, trimeric HA; conditions: remark: other sources report otherwise

Row | Binder | Trimeric HA Binding: RLU [RLU]
51 | B1 | 8860
52 | B2 | 28800
53 | B3 | 24700
54 | B4 | 769

target: recombinant homotrimeric HA A/California/4/09 H1N1 (Influenza A virus A/California/04/2009(H1N1)); assay: protein microarray, purified IgG, trimeric HA; conditions: remark: other sources report otherwise

Row | Binder | Trimeric HA Binding: RLU [RLU]
55 | B1 | 298
56 | B2 | 6810
57 | B3 | 18600
58 | B4 | 266

target: recombinant homotrimeric HA A/Egypt/3300-NAMRU3/08 H5N1 (Influenza A virus A/Egypt/3300-NAMRU3/2008(H5N1)); assay: protein microarray, purified IgG, trimeric HA; conditions: remark: other sources report otherwise

Row | Binder | Trimeric HA Binding: RLU [RLU]
59 | B1 | 4710
60 | B2 | 25600
61 | B3 | 23900
62 | B4 | 860

target: recombinant homotrimeric HA A/Hong Kong/156/97 H5N1 (Influenza A virus A/Hong Kong/156/97 (H5N1)); assay: protein microarray, purified IgG, trimeric HA; conditions: remark: other sources report otherwise

Row | Binder | Trimeric HA Binding: RLU [RLU]
63 | B1 | 732
64 | B2 | 25700
65 | B3 | 28600
66 | B4 | 465

target: recombinant homotrimeric HA A/Hong Kong/2108/03 H9N2 (Influenza A virus A/HK/2108/2003(H9N2)); assay: protein microarray, purified IgG, trimeric HA; conditions: remark: other sources report otherwise

Row | Binder | Trimeric HA Binding: RLU [RLU]
67 | B2 | 23600
68 | B3 | 18700
69 | B4 | 164

target: recombinant homotrimeric HA A/Indonesia/5/05 H5N1 (Influenza A virus A/Indonesia/5/2005(H5N1)); assay: protein microarray, purified IgG, trimeric HA; conditions: remark: other sources report otherwise

Row | Binder | Trimeric HA Binding: RLU [RLU]
70 | B2 | 27000
71 | B3 | 29600
72 | B4 | 139

target: recombinant homotrimeric HA A/Japan/305/57 H2N2 (Influenza A virus A/Japan/305/1957(H2N2)); assay: protein microarray, purified IgG, trimeric HA; conditions: remark: other sources report otherwise

Row | Binder | Trimeric HA Binding: RLU [RLU]
73 | B1 | 771
74 | B2 | 30100
75 | B3 | 27000
76 | B4 | 29000

target: recombinant homotrimeric HA A/Netherlands/219/03 H7N7 (Influenza A virus A/Netherlands/219/03(H7N7)); assay: protein microarray, purified IgG, trimeric HA; conditions: remark: other sources report otherwise

Row | Binder | Trimeric HA Binding: RLU [RLU]
77 | B1 | 186
78 | B2 | 16700
79 | B3 | 15200
80 | B4 | 191

target: recombinant homotrimeric HA A/Solomon Islands/3/06 H1N1 (Influenza A virus A/Solomon Islands/3/2006(H1N1)); assay: protein microarray, purified IgG, trimeric HA; conditions: remark: other sources report otherwise

Row | Binder | Trimeric HA Binding: RLU [RLU]
81 | B2 | 25400
82 | B3 | 22900
83 | B4 | 9360

target: recombinant homotrimeric HA A/South Carolina/1/18 H1N1 (Influenza A virus A/South Carolina/1/18 (H1N1)); assay: protein microarray, purified IgG, trimeric HA; conditions: remark: other sources report otherwise

Row | Binder | Trimeric HA Binding: RLU [RLU]
84 | B1 | 160
85 | B2 | 16900
86 | B3 | 314
87 | B4 | 139

target: recombinant homotrimeric HA A/Vietnam/1203/04 H5N1 (Influenza A virus A/VietNam/1203/2004(H5N1)); assay: protein microarray, purified IgG, trimeric HA; conditions: remark: other sources report otherwise

Row | Binder | Trimeric HA Binding: RLU [RLU]
88 | B1 | 749
89 | B2 | 24600
90 | B3 | 19800
91 | B4 | 830

target: recombinant homotrimeric HA A/Wisconsin/67/05 H3N2 (Influenza A virus A/Wisconsin/67/2005(H3N2)); assay: protein microarray, purified IgG, trimeric HA; conditions: remark: other sources report otherwise

Row | Binder | Trimeric HA Binding: RLU [RLU]
92 | B1 | 24700
93 | B2 | 1060
94 | B3 | 600
95 | B4 | 6900

target: recombinant homotrimeric HA A/chicken/Vietnam/NCVD-016/08 H5N1 (Influenza A virus A/chicken/Vietnam/NCVD-016/2008(H5N1)); assay: protein microarray, purified IgG, trimeric HA; conditions: remark: other sources report otherwise

Row | Binder | Trimeric HA Binding: RLU [RLU]
96 | B1 | 419
97 | B2 | 22700
98 | B3 | 25200
99 | B4 | 338

target: recombinant homotrimeric HA A/northern shoveler/California/HKWF115/07 H6N4 (Influenza A virus A/northern shoveler/California/HKWF115/2007(H6N1)); assay: protein microarray, purified IgG, trimeric HA; conditions: remark: other sources report otherwise

Row | Binder | Trimeric HA Binding: RLU [RLU]
100 | B1 | 114
101 | B2 | 18000
102 | B3 | 13200
103 | B4 | 76
